This data set relates to recombinant human PAD2 and PAD4. Briefly: Citrullination site mapping by trypsin digestion and mass spectrometry; protein-level modifications over native, PAD2- and PAD4-citrullinated samples combined. It is filed as biochemical. To be noted: trypsin digest, Sequest HT search; co-identified proteins in the fibrinogen and vimentin samples (native, PAD2-cit, PAD4-cit); not split by sample or enzyme. The text has this: Description: Raw mass spectrometry data for proteolytic mapping of fibrinogen, vimentin, and hnRNP A2/B1 by cathepsins B, S, and H (sheets 1-6); citrullination site mapping of fibrinogen and vimentin by trypsin digestion (sheets 7-8); and the natural antigen processing assay with native, PAD2-citrullinated (PAD2-cit), and PAD4-citrullinated (PAD4-cit) fibrinogen (sheets 9-11).

B1: Tubulin beta-4A chain (protein, UniProt P04350 1-444, looked up)
Tubulin beta-4A chain: MREIVHLQAGQCGNQIGAKFWEVISDEHGIDPTGTYHGDSDLQLERINVYYNEATGGNYVPRAVLVDLEPGTMDSVRSGPFGQIFRPDNFVFGQSGAGNNWAKGHYTEGAELVDAVLDVVRKEAESCDCLQGFQLTHSLGGGTGSGMGTLLISKIREEFPDRIMNTFSVVPSPKVSDTVVEPYNATLSVHQLVENTDETYCIDNEALYDICFRTLKLTTPTYGDLNHLVSATMSGVTTCLRFPGQLNADLRKLAVNMVPFPRLHFFMPGFAPLTSRGSQQYRALTVPELTQQMFDAKNMMAACDPRHGRYLTVAAVFRGRMSMKEVDEQMLSVQSKNSSYFVEWIPNNVKTAVCDIPPRGLKMAATFIGNSTAIQELFKRISEQFTAMFRRKAFLHWYTGEGMDEMEFTEAESNMNDLVSEYQQYQDATAEEGEFEEEAEEEVA
With B1, the “Modifications (Deamidated [R...] = citrullinated arginine positions found)” value was “Deamidated [R2]”.
